Values joined by “and” are separate entries in the source; they are usually repeats but may differ in a detail not shown here. Equal values may be shown once.

The target of test [1] is T1, MYD88 L265P peptide on HLA-B*07:02 (human).
T1 peptide: RPIPIKYKAM
The test can be described thus: printed as KD (TCR affinity/avidity): non-linear curve analysis of the IFNγ ELISA response; TCR-transduced CD8+ T cells from healthy donors with K562 cells transduced with HLA*B07:02 and loaded with titrated peptide; full-length, on cells. (An ELISA detects its analyte on a solid surface through an enzyme-linked reagent.)

Test [2] deals with T2, human self peptide predicted by Expitope for TCR2304 (source protein not named) peptide on HLA-B*07:02 (human).
T2 peptide: LPIHITYAAM
The test can be described thus: cytokine release.

The target in test [3] is T3, human self peptide predicted by Expitope for TCR2304 (source protein not named) peptide on HLA-B*07:02 (human).
T3 peptide: RPRMIGYGAI
The test can be described thus: cytokine release.

The target of test [4] is T4, human self peptide predicted by Expitope for TCR2304 (source protein not named) peptide on HLA-B*07:02 (human).
T4 peptide: RPAMIPYWAL
The test can be described thus: cytokine release.

Test [5] addresses T5, human self peptide predicted by Expitope for TCR2304 (source protein not named) peptide on HLA-B*07:02 (human).
T5 peptide: VPIIIKYLMF
The test can be described thus: cytokine release.

The target of test [6] is T6, human self peptide predicted by Expitope for TCR2304 (source protein not named) peptide on HLA-B*07:02 (human).
T6 peptide: RPVPISYHQL
The test can be described thus: cytokine release.

Test [7] has as its target T7, human self peptide predicted by Expitope for TCR2304 (source protein not named) peptide on HLA-B*07:02 (human).
T7 peptide: KPIRIGYKIW
The test can be described thus: cytokine release.

Test [8] deals with T8, human self peptide predicted by Expitope for TCR2304 (source protein not named) peptide on HLA-B*07:02 (human).
T8 peptide: RPDLIDYKSL
The test can be described thus: cytokine release.

Test [9] has as its target T9, human self peptide predicted by Expitope for TCR2304 (source protein not named) peptide on HLA-B*07:02 (human).
T9 peptide: LPLYISYVAM
The test can be described thus: cytokine release.

In test [10] the target is T10, human self peptide predicted by Expitope for TCR2304 (source protein not named) peptide on HLA-B*07:02 (human).
T10 peptide: LPTRIAYYAM
The test can be described thus: cytokine release.

Test [11] deals with T11, human self peptide predicted by Expitope for TCR2304 (source protein not named) peptide on HLA-B*07:02 (human).
T11 peptide: TPPKIPYKAI
The test can be described thus: cytokine release.

Test [12] addresses T12, human self peptide predicted by Expitope for TCR2304 (source protein not named) peptide on HLA-B*07:02 (human).
T12 peptide: LPQSIVYKYM
The test can be described thus: cytokine release.

Test [13] addresses T13, human self peptide predicted by Expitope for TCR2304 (source protein not named) peptide on HLA-B*07:02 (human).
T13 peptide: RPQPIYYGFS
The test can be described thus: cytokine release.

The target in test [14] is T14, MYD88 L265P epitope of SEQ ID NO: 2 with alanine at position 2 (alanine scan); residues derived from the … (human).
T14 peptide: RAIPIKYKAM
The test can be described thus: cytokine release.

B1: TCR2709 (TCR, V domains shown)
Valpha: DAKTTQPNSMESNEEEPVHLPCNHSTISGTDYIHWYRQLPSQGPEYVIHGLTSNVNNRMASLAIAEDRKSSTLILHRATLRDAAVYYCILRDRYGGSQGNLIFGKGTKLSVKP
Vbeta: NAGVTQTPKFRVLKTGQSMTLLCAQDMNHEYMYWYRQDPGMGLRLIHYSVGEGTTAKGEVPDGYNVSRLKKQNFLLGLESAAPSQTSVYFCASSYWPTTGESTDTQYFGPGTRLTVL
For B1, in test [1], the EC50 of peptide was 0.102 µg/ml and 83 nM.

B2: TCR2207 (TCR, V domains shown)
Valpha: GQNIDQPTEMTATEGAIVQINCTYQTSGFNGLFWYQQHAGEAPTFLSYNVLDGLEEKGRFSSFLSRSKGYSYLLLKELQMKDSASYLCAVDVGYSTLTFGKGTMLLVSP
Vbeta: GAVVSQHPSWVICKSGTSVKIECRSLDFQATTMFWYRQFPKQSLMLMATSNEGSKATYEQGVEKDKFLINHASLTLSTLTVTSAHPEDSSFYICSARDRSGTLGGELFFGEGSRLTVL
Consider B2, for which the EC50 of peptide in test [1] is 0.003 µg/ml and 2.4 nM.

B3: TCR1605 (TCR, V domains shown)
Valpha: GESVGLHLPTLSVQEGDNSIINCAYSNSASDYFIWYKQESGKGPQFIIDIRSNMDKRQGQRVTVLLNKTVKHLSLQIAATQPGDSAVYFCAEGTGSARQLTFGSGTQLTVLP
Vbeta: DVKVTQSSRYLVKRTGEKVFLECVQDMDHENMFWYRQDPGLGLRLIYFSYDVKMKEKGDIPEGYSVSREKKERFSLILESASTNQTSMYLCASGPFRDSVLTLVANVLTFGAGSRLTVL
With B3, the EC50 of peptide in test [1] is 0.009 µg/ml and 7.4 nM.

B4: TCR2219 (TCR, V domains shown)
Valpha: QQPVQSPQAVILREGEDAVINCSSSKALYSVHWYRQKHGEAPVFLMILLKGGEQMRHEKIFASFNEKKQQSSLYLTASQLSYSGTYFCGTAHLRAGSYQLTFGKGTKLSVIP
Vbeta: EAQVTQNPRYLITVTGKKLTVTCSQNMNHEYMSWYRQDPGLGLRQIYYSMNVEVTDKGDVPEGYKVSRKEKRNFPLILESPSPNQTSLYFCASSSSSGGAFNEQFFGPGTRLTVL
With B4, the EC50 of peptide in [1] was 0.123 µg/ml and 100 nM.

B5: TCR1336 (TCR, V domains shown)
Valpha: GENVEQHPSTLSVQEGDSAVIKCTYSDSASNYFPWYKQELGKRPQLIIDIRSNVGEKKDQRIAVTLNKTAKHFSLHITETQPEDSAVYFCAASGRYDYKLSFGAGTTVTVRA
Vbeta: DAMVIQNPRYQVTQFGKPVTLSCSQTLNHNVMYWYQQKSSQAPKLLFHYYDKDFNNEADTPDNFQSRRPNTSFCFLDIRSPGLGDAAMYLCATASDLQGDRSTEAFFGQGTRLTVV
As to B5, the EC50 of peptide in test [1] was 0.387 µg/ml and 310 nM.

B6: TCR2202 (TCR, V domains shown)
Valpha: LAKTTQPISMDSYEGQEVNITCSHNNIATNDYITWYQQFPSQGPRFIIQGYKTKVTNEVASLFIPADRKSSTLSLPRVSLSDTAVYYCLSLSDSNYQLIWGAGTKLIIKP
Vbeta: DSGVTQTPKHLITATGQRVTLRCSPRSGDLSVYWYQQSLDQGLQFLIQYYNGEERAKGNILERFSAQQFPDLHSELNLSSLELGDSALYFCASSVGQGSYEQYFGPGTRLTVT
Take B6: the EC50 of peptide in test [1] was 0.033 µg/ml and 27 nM.

B7: TCR2719 (TCR, V domains shown)
Valpha: LAKTTQPISMDSYEGQEVNITCSHNNIATNDYITWYQQFPSQGPRFIIQGYKTKVTNEVASLFIPADRKSSTLSLPRVSLSDTAVYYCLVGADSNYQLIWGAGTKLIIKP
Vbeta: DSGVTQTPKHLITATGQRVTLRCSPRSGDLSVYWYQQSLDQGLQFLIQYYNGEERAKGNILERFSAQQFPDLHSELNLSSLELGDSALYFCASSPGGGAYEQYFGPGTRLTVT
Take B7: the EC50 of peptide in test [1] was 0.024 µg/ml and 19 nM.

B8: TCR2205 (TCR, V domains shown)
Valpha: LAKTTQPISMDSYEGQEVNITCSHNNIATNDYITWYQQFPSQGPRFIIQGYKTKVTNEVASLFIPADRKSSTLSLPRVSLSDTAVYYCLVGRDGGSYIPTFGRGTSLIVHP
Vbeta: DSGVTQTPKHLITATGQRVTLRCSPRSGDLSVYWYQQSLDQGLQFLIHYYNGEERAKGNILERFSAQQFPDLHSELNLSSLELGDSALYFCASSAGQGAYEQYFGPGTRLTVT
Take B8: in [1], the EC50 of peptide was 0.004 µg/ml and 3.2 nM.

B9: TCR2705 (TCR, V domains shown)
Valpha: QKEVEQDPGPLSVPEGAIVSLNCTYSNSAFQYFMWYRQYSRKGPELLMYTYSSGNKEDGRFTAQVDKSSKYISLFIRDSQPSDSATYLCAMSGTGGFKTIFGAGTRLFVKA
Vbeta: ETGVTQTPRHLVMGMTNKKSLKCEQHLGHNAMYWYKQSAKKPLELMFVYSLEERVENNSVPSRFSPECPNSSHLFLHLHTLQPEDSALYLCASSQDRPNYYGYTFGSGTRLTVV
On to B9, for which, in [1], the EC50 of peptide is 0.02 µg/ml and 16 nM.

B10: TCR1610 (TCR, V domains shown)
Valpha: KQEVTQIPAALSVPEGENLVLNCSFTDSAIYNLQWFRQDPGKGLTSLLLIQSSQREQTSGRLNASLDKSSGRSTLYIAASQPGDSATYLCAPLGGGYNKLIFGAGTRLAVHP
Vbeta: NAGVTQTPKFRILKIGQSMTLQCAQDMNHNYMYWYRQDPGMGLKLIYYSVGAGITDKGEVPNGYNVSRSTTEDFPLRLELAAPSQTSVYFCASRLPTTDEKLFFGSGTQLSVL
For B10, in test [1], the EC50 of peptide was 0.009 µg/ml and 7.4 nM.

B11: TCR2304 (TCR, V domains shown)
Valpha: GQNIDQPTEMTATEGAIVQINCTYQTSGFNGLFWYQQHAGEAPTFLSYNVLDGLEEKGRFSSFLSRSKGYSYLLLKELQMKDSASYLCAVRASGTYKYIFGTGTRLKVLA
Vbeta: DAGVIQSPRHEVTEMGQEVTLRCKPISGHNSLFWYRQTMMRGLELLIYFNNNVPIDDSGMPEDRFSAKMPNASFSTLKIQPSEPRDSAVYFCASQDSYEQYFGPGTRLTVT
Regarding B11, the binding result in [2], in test [3], in [4], in test [5], in [6] and in test [7] was “no recognition” each time. In addition, the binding result in test [8], in test [9], in [10], in test [11], in [12] and in test [13] was “no recognition” in each case. Also, the binding result in [14] is given as “no recognition”. In addition, the EC50 of peptide in test [1] is 0.003 µg/ml and 2.4 nM.

B12: TCR2716 (TCR, V domains shown)
Valpha: AQTVTQSQPEMSVQEAETVTLSCTYDTSENNYYLFWYKQPPSRQMILVIRQEAYKQQNATENRFSVNFQKAAKSFSLKISDSQLGDTAMYFCAFMKPYSGGGADGLTFGKGTHLIIQP
Vbeta: AAGVIQSPRHLIKEKRETATLKCYPIPRHDTVYWYQQGPGQDPQFLISFYEKMQSDKGSIPDRFSAQQFSDYHSELNMSSLELGDSALYFCASSLAGTTVYNEQFFGPGTRLTVL
In the case of B12, the EC50 of peptide in [1] is 0.099 µg/ml and 81 nM.

(Values after patent publication US20220064257A1 (published 2022).)
